Reference: PMC3826667, “S100A9 protein is a novel ligand for the CD85j receptor and its interaction is implicated in the control of HIV-1 replication by NK cells” (Retrovirology, 2013)

Target: T1, recombinant CD85j-Fc fusion protein (human, UniProt Q8NHL6 24-461)
T1 construct: CD85j (LILRB1, ILT2, LIR-1), human; also called CD85j fusion protein; LILRB1; source: bought: R&D System
Test: ELISA; anti-GST mAb-coated wells, 4 ug/mL GST-tagged S100A8 or S100A9 captured, increasing amounts of CD85j-Fc, 2 h at 37°C; detected with HRP anti-human-Fc
Details: both partners purified

T1 sequence (Q8NHL6 24-461): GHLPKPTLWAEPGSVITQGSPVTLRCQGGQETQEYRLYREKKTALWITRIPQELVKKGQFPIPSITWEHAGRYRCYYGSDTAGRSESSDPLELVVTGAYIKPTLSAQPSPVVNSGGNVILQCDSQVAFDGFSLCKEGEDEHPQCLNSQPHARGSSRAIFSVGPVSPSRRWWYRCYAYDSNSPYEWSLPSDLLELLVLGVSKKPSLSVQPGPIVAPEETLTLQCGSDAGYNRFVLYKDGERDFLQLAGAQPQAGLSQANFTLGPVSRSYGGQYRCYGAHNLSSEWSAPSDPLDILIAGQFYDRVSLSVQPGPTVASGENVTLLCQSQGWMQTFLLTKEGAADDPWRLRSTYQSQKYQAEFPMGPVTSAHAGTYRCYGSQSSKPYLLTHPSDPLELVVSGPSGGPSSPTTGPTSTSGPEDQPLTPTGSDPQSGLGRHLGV

Binder	binding result
recombinant GST-tagged human S100A8 monomer protein (natural protein, UniProt P05109 1-93, looked up, S100A8, human, recombinant, GST-tagged; source: bought: Tebu-bio) MLTELEKALNSIIDVYHKYSLIKGNFHAVYRDDLKKLLETECPQYIRKKGADVWFKELDINTDGAVNFQEFLILVIKMGVAAHKKSHEESHKE	binds
full-length recombinant GST-tagged human S100A9 monomer (natural protein, UniProt P06702 1-114, looked up, S100A9, human, full-length recombinant, GST-tagged; source: bought: Tebu-bio) MTCKMSQLERNIETIINTFHQYSVKLGHPDTLNQGEFKELVRKDLQNFLKKENKNEKVIEHIMEDLDTNADKQLSFEEFIMLMARLTWASHEKMHEGDEGPGHHHKPGLGEGTP	binds
